From US20240400635A1

Molecular target: FGF receptor/BKL complex (human) (UniProt Q86Z14)
Assay: cell-based or functional assay

FGF receptor/BKL complex (human), sequence (Q86Z14 whole entry, one chain of several): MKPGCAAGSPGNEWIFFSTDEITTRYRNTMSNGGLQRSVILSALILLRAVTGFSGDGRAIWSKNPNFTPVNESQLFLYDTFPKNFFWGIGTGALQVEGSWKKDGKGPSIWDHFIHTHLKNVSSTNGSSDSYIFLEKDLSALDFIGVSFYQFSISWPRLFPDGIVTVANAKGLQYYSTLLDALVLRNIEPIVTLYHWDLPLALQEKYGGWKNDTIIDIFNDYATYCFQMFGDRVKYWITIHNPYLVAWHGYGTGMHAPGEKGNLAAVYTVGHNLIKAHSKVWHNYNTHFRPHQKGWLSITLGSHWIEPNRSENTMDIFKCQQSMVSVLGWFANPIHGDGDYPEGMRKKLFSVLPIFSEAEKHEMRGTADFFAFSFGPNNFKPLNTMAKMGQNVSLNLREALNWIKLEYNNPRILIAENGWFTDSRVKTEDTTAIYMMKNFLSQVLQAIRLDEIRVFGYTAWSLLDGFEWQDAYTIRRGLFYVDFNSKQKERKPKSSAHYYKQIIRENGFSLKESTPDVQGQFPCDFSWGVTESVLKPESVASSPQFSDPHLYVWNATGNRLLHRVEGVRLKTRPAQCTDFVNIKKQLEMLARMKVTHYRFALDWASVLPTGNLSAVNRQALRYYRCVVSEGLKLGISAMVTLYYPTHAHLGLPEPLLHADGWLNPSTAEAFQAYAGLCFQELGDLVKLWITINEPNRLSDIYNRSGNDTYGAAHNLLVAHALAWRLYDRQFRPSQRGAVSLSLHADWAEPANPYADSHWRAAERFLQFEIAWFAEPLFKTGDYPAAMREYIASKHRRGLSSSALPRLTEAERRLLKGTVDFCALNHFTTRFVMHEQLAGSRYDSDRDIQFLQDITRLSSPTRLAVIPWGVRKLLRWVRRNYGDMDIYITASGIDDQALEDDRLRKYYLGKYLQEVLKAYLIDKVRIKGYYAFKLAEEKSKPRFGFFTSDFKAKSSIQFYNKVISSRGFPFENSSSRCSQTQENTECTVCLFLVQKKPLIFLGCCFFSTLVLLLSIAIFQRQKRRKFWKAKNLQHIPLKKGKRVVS

Substance | FGF1 receptor potency [EC50] nM 0.1% HSA [nM] | FGF21 receptor potency [EC50] nM 0% HSA [nM]
Met-FGF21 (Comparator) SEQ ID NO: 36 (from UniProt Q9NSA1 29-209) (ligand) | 0.44 | 0.52
S{Beta-180}-[2-[2-[[2-[2-[2-[[2-[2-[2-[[(4S)-4-carboxy-4-(17-carboxyheptadecanoyl-amino)butanoyl]amino]ethoxy]ethoxy]acetyl]amino]ethoxy]ethoxy]acetyl]amino]-ethylamino]-2-oxoethyl]-Ala[Gln121,Leu168,Cys180]FGF21(1-181) (from UniProt Q9NSA1 28-209) (ligand) | 10.1 | 2.5
